Positions count from the first letter of the chain named.
T1: Movement Protein of ToBRFV (Tomato Brown Rugose Fruit Virus …, UniProt A0A0S2SZW1 1-266)
T1 sequence: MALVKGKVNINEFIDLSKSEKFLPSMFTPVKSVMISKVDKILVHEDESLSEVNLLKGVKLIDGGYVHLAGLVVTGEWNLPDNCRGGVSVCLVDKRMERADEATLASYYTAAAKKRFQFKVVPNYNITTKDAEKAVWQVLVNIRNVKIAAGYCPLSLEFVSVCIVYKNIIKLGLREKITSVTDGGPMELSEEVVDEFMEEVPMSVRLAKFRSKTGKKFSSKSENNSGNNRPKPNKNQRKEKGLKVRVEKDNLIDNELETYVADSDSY

B1: TM-2-2 variant pJL 468_M (848 M) (receptor)
chain: MAEILLTSVINKSVEIAGNLLIQEGKRLYWLKEDIDWLQREMRHIRSYVDNAKAKEAGGDSRVKNLLKDIQELAGDVEDLLDDFLPKIQQSNKFNYCLKRSSFADEFAMEIEKIKRRVVDIDRIRKTYNIIDTDNNNDDCVLLDRRRLFLHADETEIIGLDDDFNMLQAKLLNQDLHYGVVSIVGMPGLGKTTLAKKLYRLIRDQFECSGLVYVSQQPRASEILLDIAKQIGLTEQKMKENLEDNLRSLLKIKRYVILLDDIWDVEIWDDLKLVLPECDSKVGSRMIITSRNSNVGRYIGGESSLHALQPLESEKSFELFTKKIFNFDDNNSWANASPDLVNIGRNIVGRCGGIPLAIVVTAGMLRARERTEHAWNRVLESMGHKVQDGCAKVLALSYNDLPIASRPCFLYFGLYPEDHEIRAFDLINMWIAEKFIVVNSGNRREAEDLAEDVLNDLVSRNLIQLAKRTYNGRISSCRIHDLLHSLCVDLAKESNFFHTAHDAFGDPGNVARLRRITFYSDNVMIEFFRSNPKLEKLRVLFCFAKDPSIFSHMAYFDFKLLHTLVVVMSQSFQAYVTIPSKFGNMTCLRYLRLEGNICGKLPNSIVKLTRLETIDIDRRSLIQPPSGVWESKHLRHLCYRDYGQACNSCFSISSFYPNIYSLHPNNLQTLMWIPDKFFEPRLLHRLINLRKLGILGVSNSTVKMLSIFSPVLKALEVLKLSFSSDPSEQIKLSSYPHIAKLHLNVNRTMALNSQSFPPNLIKLTLAYFSVDRYILAVLKTFPKLRKLKMFICKYNEEKMDLSGEANGYSFPQLEVLHIHSPNGLSEVTCTDDVSMPKLKKLLLTGFHMRISLSERLKKLSK
B2: TM-2-2 variant pJL 468_N (848 N) (receptor)
chain: B1 chain with M848N
B3: TM-2-2 variant pJL 476_C (822 C, 848 R) (receptor)
chain: B1 chain with N822C, M848R
B4: TM-2-2 variant pJL 468_R (848 R) (receptor)
chain: B1 chain with M848R
B5: TM-2-2 variant pJL 476_K (822 K, 848 R) (receptor)
chain: B1 chain with N822K, M848R
B6: TM-2-2 variant pJL 477_H (822 H, 848 R) (receptor)
chain: B1 chain with N822H, M848R
B7: TM-2-2 variant pJL 476_S (822 S, 848 R) (receptor)
chain: B1 chain with N822S, M848R
B8: TM-2-2 variant pJL 468_Q (848 Q) (receptor)
chain: B1 chain with M848Q
B9: TM-2-2 variant pJL 468_T (848 T) (receptor)
chain: B1 chain with M848T
B10: TM-2-2 variant pJL 476_T (822 T, 848 R) (receptor)
chain: B1 chain with N822T, M848R
B11: TM-2-2 variant pJL 476_F (822 F, 848 R) (receptor)
chain: B1 chain with N822F, M848R
B12: TM-2-2 variant pJL 477_D (822 D, 848 R) (receptor)
chain: B1 chain with N822D, M848R
B13: TM-2-2 variant pJL 468_S (848 S) (receptor)
chain: B1 chain with M848S
B14: TM-2-2 variant pJL 476_I (822 I, 848 R) (receptor)
chain: B1 chain with N822I, M848R
B15: TM-2-2 variant pJL 468_P (848 P) (receptor)
chain: B1 chain with M848P

How the values were obtained:
[1] = biological target: T1, Movement Protein of ToBRFV; experiment: cell-based or functional assay
[2] = biological target: T1, Movement Protein of ToBRFV; experiment: cell-based or functional assay; remark: listed apart in the source

Binder | HR when expressed with MP Rugose [1] [HR scale 0-4] | HR to MP Rugose [2] [HR scale 0-4]
B1 | < 1 | 
B2 | < 1 | 
B3 |  | 2
B4 | 4 | 
B5 |  | 0
B6 |  | < 1
B7 |  | 4
B8 | < 1 | 
B9 | ~1 | 
B10 |  | < 1
B11 |  | 2
B12 |  | < 1
B13 | ~1 | 
B14 |  | 0
B15 | < 1 | 

Reference: US20240049668A1 (VILMORIN AND CIE, published 2024)
